Test results published in PMC9898148 (Structure (London, England : 1993), 2022).
Values belong to the binder of their own block, whether it stands above or below them.

Tests used:
[1] = target: T1, hNAA30^211-362 (catalytic subunit of human NatC, N-terminally truncated) (human, UniProt Q147X3 211-362); test: cryo-EM structure
T1 sequence (looked up): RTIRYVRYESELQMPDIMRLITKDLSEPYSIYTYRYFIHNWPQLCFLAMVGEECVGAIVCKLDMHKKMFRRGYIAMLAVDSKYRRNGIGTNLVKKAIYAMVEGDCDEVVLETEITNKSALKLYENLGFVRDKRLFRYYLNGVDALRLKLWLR

[2] = target: T2, hNAA35^28-725 (large auxiliary subunit of human NatC, N-terminally truncated) (human, UniProt Q5VZE5 28-725); test: cryo-EM structure
T2 sequence (looked up): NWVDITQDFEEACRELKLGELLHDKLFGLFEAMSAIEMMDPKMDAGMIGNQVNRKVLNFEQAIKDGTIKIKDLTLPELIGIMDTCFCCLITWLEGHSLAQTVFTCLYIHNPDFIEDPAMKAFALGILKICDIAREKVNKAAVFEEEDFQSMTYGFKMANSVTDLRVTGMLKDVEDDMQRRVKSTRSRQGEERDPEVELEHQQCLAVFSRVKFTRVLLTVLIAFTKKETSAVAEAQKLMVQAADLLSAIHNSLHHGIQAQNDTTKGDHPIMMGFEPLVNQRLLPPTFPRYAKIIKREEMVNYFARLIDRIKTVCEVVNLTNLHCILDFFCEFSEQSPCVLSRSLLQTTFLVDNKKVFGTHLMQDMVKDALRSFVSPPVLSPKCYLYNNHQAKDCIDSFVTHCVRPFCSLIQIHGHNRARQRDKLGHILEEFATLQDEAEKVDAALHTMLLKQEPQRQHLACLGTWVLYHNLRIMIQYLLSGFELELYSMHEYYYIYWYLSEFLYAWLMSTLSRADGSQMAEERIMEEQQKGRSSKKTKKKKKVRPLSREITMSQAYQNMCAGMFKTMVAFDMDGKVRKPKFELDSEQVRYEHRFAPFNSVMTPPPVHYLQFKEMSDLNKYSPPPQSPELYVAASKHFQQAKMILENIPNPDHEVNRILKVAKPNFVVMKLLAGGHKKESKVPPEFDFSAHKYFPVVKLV

binding result [1]: binds
Binder: {CoA‑Ac}-MLGPE-NH2 [CoA-Ac-MLGPE-NH2 bisubstrate inhibitor]

binding result [2]: binds
B1: hNAA38^1-125 (small auxiliary subunit of human NatC, full length) (natural protein, UniProt Q9BRA0 1-125, looked up)
chain: MAGAGPTMLLREENGCCSRRQSSSSAGDSDGEREDSAAERARQQLEALLNKTMRIRMTDGRTLVGCFLCTDRDCNVILGSAQEFLKPSDSFSAGEPRVLGLAMVPGHHIVSIEVQRESLTGPPYL
